A short description of this data set: yeast display, Sf9 membrane polyspecificity reagent, FACS + sequencing; frameworks hold sequencing errors. The gist of the method: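 A synthetic nanobody library was expressed on Saccharomyces cerevisiae BJ5465 by galactose induction for 36–48 hours. The library was stained for 1 hour at 4 °C with 10% biotinylated, detergent-solubilized Sf9 membrane reagent and enriched with streptavidin microbeads before FACS. Low and high (top ~1%) gates were set on anti-HA fluorescence for expression and streptavidin fluorescence for reagent binding, and each polyreactivity label reflects the gate of origin.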
Consider “QVQLVESGGGLVQAGGSLRLSCAASGSIFNPNAMGWYRQAPGKETELVAAISWISGRTYYADSGKGRFTISRDNAKNTVYLQMISLKTEDTAVYYCAARYPLTQSKYYYWGQWTQVTVSS”, for which the “polyreactivity (PSR sort gate)” value was “high polyreactivity”.

With “QVQLVESGGGLVQAGGSLRLSCAASGSIFNPYTMGWYRQAPGKEREMVAAISASGGSTYYADSVKGRFTISRDNAKNTVYLQMNSLKPEDTAVYYCNVYRITRHSYNFGFDYWGQGTQVTVSS”, the “polyreactivity (PSR sort gate)” value is recorded as “low polyreactivity”.

Take “QVQLVESGGGLVQAGGSLRLSCAASGSIFNRNAMGWYRQAPGKERELVAAISNSGARTYYADSVKGRFTISRDNAKNTVYLQMNSLKPEDTAVYYCNDVRRRSKLYNYWGQGTQVTVSS”: the “polyreactivity (PSR sort gate)” value is “high polyreactivity”.

Take “QVQLVESGGGLVQAGGSLRLSCAASGSIFNRYAMGWFRQAPGKERELVAAISRRGAGTYYADSVKGRFTISRDNAKNTVYLQMNSLKPEDTAVYYCAATLSYTGSKRYDYWGQGTQVTVSS”: the “polyreactivity (PSR sort gate)” value is recorded as “high polyreactivity”.

Consider “QVQLVESGGGLVQAGGSLRLSCAASGSIFNRYAMGWYRQAPGKEREIVAAISTHTGTTYYADSVKGRFTISRDNAKNTVYLQMNSLKPEDTAVYYCDKRSRYGYGKSYDYWGQGTQVTVSS”, for which the “polyreactivity (PSR sort gate)” value is “high polyreactivity”.

For the sequence “QVQLVESGGGLVQAGGSLRLSCAASGSIFNRYTMGWYRQAPGKERELVAAISKRGGSTYYADSVKGRFTISRDNAKNTVYLQMNSLKPEDTAVYYCAAAGYHSGKGGGYWGQGTQVTVSS”, the “polyreactivity (PSR sort gate)” value is on record as “high polyreactivity”.

For the sequence “QVQLVESGGGLVQAGGSLRLSCAASGSIFNSYAMGWSRQAPGKERELVAAISSGGGRTYYADSVKGRFTISRDNAKNTVYLQMNSLKPEDTAVYYCNARAVYRFDYWGQGTQVTVSS”, the “polyreactivity (PSR sort gate)” value is reported as “high polyreactivity”.

In the case of “QVQLVESGGGLVQAGGSLRLSCAASGSIFNTIALGWYRQAPGKESELVASISSDGGTNYADSLKGRFTISRDNAKNTVYLQMNRLKPEDTAVYACATTQEYSGQRTPGYDYWGQVTQVTVSS”, the “polyreactivity (PSR sort gate)” value is recorded as “low polyreactivity”.

With “QVQLVESGGGLVQAGGSLRLSCAASGSIFNTYAMGWYRQAPGKERELVAAISRSGDSTYYADSVKGRFTISRDNAKNTVYVQMNSLKPEDSAVYYCATGRTDHGYYYWGQGTQVTVSS”, the “polyreactivity (PSR sort gate)” value was “high polyreactivity”.

As for “QVQLVESGGGLVQAGGSLRLSCAASGSIFNTYAMGWYRQAPGKERELVAAITWSGGSTYYADSVKGRFTISRDNAKNTVYLQRNSLKPEDTAVYDCAARQRRQSYWGQGTQVTVSS”, the “polyreactivity (PSR sort gate)” value is given as “high polyreactivity”.

For the sequence “QVQLVESGGGLVQAGGSLRLSCAASGSIFNVNAMGWYRQAPGKERELVAAISSGGNTNYADSVKGRFTFSRDNAKNTVYLQMNRLKPEDTAVYYCATGGYYSAIVYGGYDYWGQGTQVTVSS”, the “polyreactivity (PSR sort gate)” value is listed as “low polyreactivity”.

Take “QVQLVESGGGLVQAGGSLRLSCAASGSIFNWYAMGWYTQAPGKERELVAAISWRCGSTYYADSVKGRFTISRDNAKITVYLQMNSLKPEDTAVYYCAADGGADHMDYWGQGTQVTVSS”: the “polyreactivity (PSR sort gate)” value is reported as “high polyreactivity”.

“QVQLVESGGGLVQAGGSLRLSCAASGSIFNYNAMGWYRQAPGKERELVAGITTSGGSTYYADSVKGRFTISRDNAKKTVYLQMNSLKPEDTAVYYCAAYDYISSTYFLDDYWGQGTQVTVSS”: the “polyreactivity (PSR sort gate)” value was “low polyreactivity”.

On to “QVQLVESGGGLVQAGGSLRLSCAASGSIFNYNAMGWYRQEPGKERVLVATINKRAGRTYYADSVKGRFTISRDNAKNTFYLQMNSLNPEETAVYYCAAYGRNYSIYDYWGQGTQVTVSS”, for which the “polyreactivity (PSR sort gate)” value is reported as “high polyreactivity”.

As for “QVQLVESGGGLVQAGGSLRLSCAASGSIFNYNTMGWYRQAPGKERELVADISWSGGSTYYADSVKGRFTISRDNAKNTVYLQMNSLKPEDTAVYYCAADFGLFPYVGTGYYFWGQGTQVTVSS”, the “polyreactivity (PSR sort gate)” value is given as “low polyreactivity”.

Turning to “QVQLVESGGGLVQAGGSLRLSCAASGSIFNYYAMGWYRQAPGKEMELVAGITTSGGYTYYADSVKGRFTISSDNAKNTVYLQMNSLKPEDTAVYYCAAYDYISSTYFLDDYWGQGTQVTVSS”, the “polyreactivity (PSR sort gate)” value is on record as “low polyreactivity”.

Turning to “QVQLVESGGGLVQAGGSLRLSCAASGSIFNYYAMGWYRQAPGKERELVAAITYGGASTYYADSVKGRFTISRDNAKNTVYLQMNSLKPEDTAVYYCAADSFTRWVFYRSTVRGFGYWGQGTQVTVSS”, the “polyreactivity (PSR sort gate)” value is on record as “high polyreactivity”.

In the case of “QVQLVESGGGLVQAGGSLRLSCAASGSIFNYYGMGWYRQAPGKEREFVAAITSNGGTTYYADSVKGRFTISRDNAKNTVYLQMNSLKPEDTAVYYCADRPRYYWRGYDYWGLGTQVTVSS”, the “polyreactivity (PSR sort gate)” value is “high polyreactivity”.

For “QVQLVESGGGLVQAGGSLRLSCAASGSIFNYYVMGWYRQAPGKERELVAGIRWNGGSTYYADSVKGRFTISRDNAKNTVYLQMNSLKPEDTAVYYCAAQAWWGYYSRGPMDYWGQGTQVTVSS”, the “polyreactivity (PSR sort gate)” value was “low polyreactivity”.

As for “QVQLVESGGGLVQAGGSLRLSCAASGSIFNYYVMGWYRQAPGKERELVAGIRWNGGSTYYADSVKGRFTISRDNAKNTVYLQMNSLKPEDTAVYYFAAQAWWGYYSRGPMDYWGQGTQVTVSS”, the “polyreactivity (PSR sort gate)” value was “low polyreactivity”.

On to “QVQLVESGGGLVQAGGSLRLSCAASGSIFPANAMGWYRQAPGKERELVAAISGRGGRTYYADSVKGRFTISRDNAKNTVYLQMNSLKPEDTAVYYCNKVGPLVGGVKYYYWGQGTQVTVSS”, for which the “polyreactivity (PSR sort gate)” value is reported as “high polyreactivity”.

On to “QVQLVESGGGLVQAGGSLRLSCAASGSIFPAYALGWYRPAPGKERELVAAITSSCGSTYYADSVKGRFTISRDNAKNTVYLQMNSLKPEDTAVYYCATVYPGDSYVYRFDYWGQGTQVTVSS”, for which the “polyreactivity (PSR sort gate)” value is reported as “low polyreactivity”.

Consider “QVQLVESGGGLVQAGGSLRLSCAASGSIFPAYAMGWYRQAPGKEREFVAAISGTGGITYYADSVKGRFTISRDNAKNTVYLQMNSLKPEDTEVYYCAAPVYNRYYYWGQGTQVTVSS”, for which the “polyreactivity (PSR sort gate)” value is listed as “low polyreactivity”.

For “QVQLVESGGGLVQAGGSLRLSCAASGSIFPDNVMGWYRQATGKERELVAAISRTGGSTYYADSVKGRFTISRDNAKNTVYLQMNSLKPEDTAVYYCNAKYRVPYAVGGDYGYWGQGTQVTVSS”, the “polyreactivity (PSR sort gate)” value is given as “high polyreactivity”.

Take “QVQLVESGGGLVQAGGSLRLSCAASGSIFPDYALGWSRQAPGKESELVAAITRRDDSTYYADSVKGRFTISRDKAKNTVYLQMNSLKPEDTAVYYCNASALDPLYAKDDYWGQGTQVTVSS”: the “polyreactivity (PSR sort gate)” value is “low polyreactivity”.

For the sequence “QVQLVESGGGLVQAGGSLRLSCAASGSIFPDYAMGWYRQAPGKERELVAAIDTSTTDTYYADSVKGRFTISRDNAKNTVYLQMNSLKPEDTAVYYCAADAYDDPYGYWGQGTQVTVSS”, the “polyreactivity (PSR sort gate)” value is on record as “high polyreactivity”.

“QVQLVESGGGLVQAGGSLRLSCAASGSIFPDYAMGWYRQAPGKERELVAAITTSGGNTYYADSVKGRFTISRDNAKNTVYLQMNSLKPEDTAVYYCAAEITYSYPGSPRRRDYWGQGTQLTVSS”: the “polyreactivity (PSR sort gate)” value is “low polyreactivity”.

On to “QVQLVESGGGLVQAGGSLRLSCAASGSIFPDYAMGWYRQAPGKERELVAAITWRDDSTYYADSVKGRFTISRDNAKNTVYLQMNSLKPEDTAVYYCNASALDPLFAKDDYWGQGTQVTVSS”, for which the “polyreactivity (PSR sort gate)” value was “low polyreactivity”.

As for “QVQLVESGGGLVQAGGSLRLSCAASGSIFPEYAMGWYRQAPGKEREFVATIRWSGDSTYYADSVKGRFTISRDNAKNTVYLQMNSLKPEDTAVYYCAADQGRYGIIGWDDYWGQGTQVTVSS”, the “polyreactivity (PSR sort gate)” value is reported as “low polyreactivity”.

As for “QVQLVESGGGLVQAGGSLRLSCAASGSIFPFYAMGWYRHAPGKERELVASISSGGSTNYADSVKGRFTISRDNAKNTVYLQMNSLKPEDTAVYYCNAVVPYRWDTWFQVVYPESYDYWGQGTQVTVSS”, the “polyreactivity (PSR sort gate)” value is “low polyreactivity”.

Regarding “QVQLVESGGGLVQAGGSLRLSCAASGSIFPFYAMGWYRQAPGKERELVAAINYSAGSTYYADSVKGRFTISRDNAKYTVYLQMNSLKPEDTAVYYCAKEVSAYEMDYWGQGTQVTVSS”, the “polyreactivity (PSR sort gate)” value is listed as “low polyreactivity”.

On to “QVQLVESGGGLVQAGGSLRLSCAASGSIFPFYAMGWYRQAPGKERELVAAISSRGGSTYYADSVKGRFTISRDNAKNTVYLQMNSLKPEDTAVYYCAARDYSIKVRLGYWGQGTQVTVSS”, for which the “polyreactivity (PSR sort gate)” value is reported as “low polyreactivity”.

Regarding “QVQLVESGGGLVQAGGSLRLSCAASGSIFPFYAMGWYRQAPGKERELVAAITYSGGSTFYADSVKGRFTISRDNAKNTVYLQMNSLKPEDTAVYYCNAVWRFGSSKYYYWGHGTQVTVSS”, the “polyreactivity (PSR sort gate)” value was “high polyreactivity”.

As for “QVQLVESGGGLVQAGGSLRLSCAASGSIFPFYAMGWYRQAPGKERELVAVISTRGGSTYYADSVKGRFTISRDYAKNTVYFQMKSLKPEDTAVYYCAAKSVYRMGYWGQGTQVTVSS”, the “polyreactivity (PSR sort gate)” value is given as “high polyreactivity”.

As for “QVQLVESGGGLVQAGGSLRLSCAASGSIFPFYAMGWYRQAPGKEREMLAANSDRGGSTYYADSVKGRFTISRDNAKNTVYLQMNSLKPEDTAVYYCNADRARFTYRATTYTGRYDYWGQGTQVTVSS”, the “polyreactivity (PSR sort gate)” value is “low polyreactivity”.

On to “QVQLVESGGGLVQAGGSLRLSCAASGSIFPGNAKGWYRQAPGKERELVASINWSGGSTYYADSVKGRVTISRDNAKNTVYVQMNSLKPEDTAGYYCNARAFRQGHVEYDYWGQGTQVTVSS”, for which the “polyreactivity (PSR sort gate)” value is “low polyreactivity”.

Regarding “QVQLVESGGGLVQAGGSLRLSCAASGSIFPGNALGWYRQAPGKERELVAVIDFSGASTYYADSVKGRFTISRDNAKNTVYLQMNRLKPEDTADYWGQGTQVTVSS”, the “polyreactivity (PSR sort gate)” value is listed as “low polyreactivity”.

“QVQLVESGGGLVQAGGSLRLSCAASGSIFPGNAMGGYRQAPGKERELVAAIRGGGSTNYADSVKGRFTISRDTAKNTVYIQMNSLKPEDTAVYYCAAQGILGSYDYWGQGTQVTVSS”: the “polyreactivity (PSR sort gate)” value is “low polyreactivity”.

For the sequence “QVQLVESGGGLVQAGGSLRLSCAASGSIFPGNAMGWYRPAPGKERELVAVIDFSGASTYYADSVKGRYTISRDNAKNTVYLQMNCLKPEVTADFWGQGTQVTVSS”, the “polyreactivity (PSR sort gate)” value is “low polyreactivity”.

Consider “QVQLVESGGGLVQAGGSLRLSCAASGSIFPGYAMGWYRQAPGKERELVATITWSGGSTYYADSVKWRFTISRDNEKNTVYLQMNCLKPEDTAVYYCNADSNWYYQWNYYGLYDYWGQGTQVTVSS”, for which the “polyreactivity (PSR sort gate)” value was “low polyreactivity”.

In the case of “QVQLVESGGGLVQAGGSLRLSCAASGSIFPHNAMGWYRQAPGKERELVAAISVSRGSTYYADSVKGRFTISRDNAKNTVYLQMNSLKPEDTAVYYCAAYAYGGRINGYRTYRYNYWGQGTQVTVSS”, the “polyreactivity (PSR sort gate)” value is “high polyreactivity”.
